Source: PMC2757159

Legend:
[1] = biological target: human copper chaperone for SOD1 (human); experiment: native gel or EMSA
[2] = biological target: yeast copper chaperone for SOD1 (yeast); experiment: native gel or EMSA
[3] = biological target: human copper chaperone for SOD1 (human); experiment: SEC
[4] = biological target: human copper chaperone for SOD1 (human); experiment: SEC; remark: listed apart in the source

Row | stoichiometry N [1] | stoichiometry N [2] | stoichiometry N [3] | stoichiometry N [4] | Substance
1 | 1 SOD1:CCS | 1 SOD1:CCS | – | – | human H46R/H48Q copper-zinc superoxide dismutase (SOD1) double mutant (from UniProt P00441 1-154) (enzyme)
2 | – | – | 4 | 4 | human copper chaperone for SOD1 (natural protein)
